Source: the NTF2 design screens of Basanta et al. (2020)

Assay: protease stability score; higher = more stable; yeast display proteolysis, trypsin and chymotrypsin;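 further: relative to predicted unfolded state with 0 unfolded-like and 1 meaning tenfold more protease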

Sequence | protease stability score
SEDEEIFRIALHILIYTMKTGDEKMLEENFDPNTKIRVGDKEFVGREELRHWFEHLRPKDFKLRDISTQGEKIRIIGHSIGEVDGREVRYDVEMDLHKVDGRWRMTHERIH | 1.16
SEDEEIHRKMFEDILHALRTGDWRELKHNLDPNVRLEVDGREIHGWEEVVKFLHEARVEHIEMRIRHVEFQGEKIISHRHMIFHKDVNGVRVDQRHDFTTIILKVNGRWRYHSIKID | 1.36
SEDEEILREILEETNKALHTGDENHIRHLLDPHVRWHVGDKTIIGRDLLVDILRRMGVKHHEIRLRDMDHVGEKIRLEGELIIRYGDKTETHDVTFVLIKFDGRWHIEEYIHG | 0.866
SEDEEIMKDLLELFFEAMKTGDEDTLRHLFDPNARFVIGDKLLHGREEYIRYLQEWRVEIEHFNIRRLELVDGRIHLEGHMHLHVQYGDKHERRTHHLEWEIIKINGRWIFRSVRIN | 1.48
SEDEEIMQRLLEELIEALTTGDEDFFTELVDPHARTEFDGKVMHGRERLKYTIELFGVKHVEFRVEVKRISVFDGRILSDTHLELIIDVDGRSVIIRRHTELRVDKVDGRWFNTEHRIE | 0.183
SEDEEIQKKFWEEFMKALHTGDWHTLEKLLDPHVRYLVGEKHVHGRKKLEMEIRHLGVTNIEMHLHIESEERQGNKIILNGEFRRRINGVEIKTRAILILIKIDGRWVIDTEFIE | 2.05
SEDEEISERALRHVYKHLKTGDEDNFQKNFDPHVRFEAENVEFHGREASEHLSKRIDVIHRIIIRHHTIYNGVIVIHGEVDGEFNGKRDRDIVTIYYVKVNGQWQIRELKIG | 0.891
SEDEEISKKIIERILETMRTGDEDIMEHLVDPDAKFHDEDHHDHGREAFRWWSEFVKRIAGHDKVEIRQQHVKFQGNKVILHTIVIQGNKIYELIIVMEKFDGRWSISTVHIR | 1.43
SEDEEIVHLAIEMYLESIRTGDWKLWEKLIDPDVRLEVNGVEFHGMEEFLKFEREINKRVDHVEVRLRDTRLVNGQVNLNTELINRYDGRTIITETTYVAIKVDGKWYIHEYRIE | 1.14
SEDEEIVKKMSKEELEFWRTGNEHELSKLFDPDVLLFVGEKIFHGREVFKHFKERVDHFHEFRDKHIQVIDGRIHIDSEVNSRFNGRQLSEDVRIQALKFDGRWHYKSIHML | 0.336
SEDEEIVRHFLEIWIKILKTGDWHSMERLVDPHAKYENEHEVDHGRDSARRFVDELRVTEFRVESVKTQGDKATVHTRMVVHFNGKRIDTETRLHIHKVDGRWVVEIIIVN | 1.43
SEDEEIWRRYAKEWYHNWSTGNFDRFKQLMDPDARFIYGDKELVGREEVLRRIRHLLEHLRFKRSEIKREHVVNGVLHLDVHEDGEQGDKSRRSDVEIILYVINGRLHTVEIRIE | 1.61
SEDEEKAERLSRKVVHDLLTGDFKSLLEMFDPNVRVNINGVNNHGRHFFWHELYDELRRLGVDKIEVDLRSLQVYGDKVVLEMELRVNGKKITVEIHMKKVDGRWHIKEVTHE | 1.04
SEDEEKASEVARRFVRSLATGDFDTLTRLMDPNYKHVYGDKEFVGREVIREHLEELRLHFEDNKVKHVRVIGDKIDTDMEVRFTVEFDGVRVHHEMKVEFRILKINGRWFLEFTIIR | 0.337
SEDEEKATEFFRLLVDNWLTGDEENVERLLDPRVRVLVGDKMIHGRHLSARLESEFLKRIPNLRIRFHLHDVRTYGDKAHLDIIIDIHFNGVDIHIESELVVVKIDGRWLFKEERRK | 0.276
SEDEEKATEMIEQLSRAILTGDEHTLHKLLDPRTRIVVNGRRIHGRELWLKFFRELRFHSDDMHIHSQEVQGDKAFFDVHWLGTRNINGVKEHSHTKTEVILLKYNGKWIVEELRYE | 2.17
SEDEEKLQHMTHLFIHLEITGDEKLWTELADPNVRLDINGVEYHGREHVLRSWVELGIKVMRLHRRTAQGDKMHLDGTIDFNGRRYRIHVDVKIIDGKLKDTKQHIE | 2.17
SEDEEKSHRFRRELLESLFTGDFDRFKELADPHVKVDINGRDIHGMELLVRIWRREEKEAGVNYTKDHDLKDHDIINGRAKIDIRVHGIFNGREQTVEVYIFSLKVDGRWILTFMKIN | 1.45
SEDEEKSKRDAQHWFNNWLTGDWRRTLELADPHARIDINGKELHGMHESLELLTRLIEKLGVDHIEMKKSDVVGDKMHIHGHLDIDGQKRDLTIFLLIIDGRLKHSQFELT | 0.165
SEDEEKTRKFIELFLYLWVTGDEDSLSELLDPNVRAEVNGKSAHGRDEVSKLSDVFMKELGVKHTRQTTQHRYEIQGDKLKSHLTIDIEVDGQNVKEFVVIVVEKINGRWIIRHIRFE | 1.1
SEDEEKVFEHLQRITESFVTGDEDSFRHLLDPNVLFLINGRIFHGWEALHWELRRYDHHEVRVHVHHIDFINGRARSDIRLDLHLNFNGKQIDIHTETRVHAEKINGRWRLKRIDIE | 0.811
SEDEELAESFSRLFFEAEETGDEESLLEMADPNVRVHIDGREIHGREEWIKHLRTFGVERIRIHMRHVEIQGDKLRLDLIVHQGDKTVRIEITIKKVDGRWVVHSIHWS | 0.868
SEDEELAKEFAETMLHWEITGNEEAIRRNMDPNTKLDINGQHYIGRDDVLRVWHEIKKRLGVDHLEIHHIRVSVIGDKIRIEIDGHIRVNGREIETHIVIITEKINGKWIIRSMRYEFK | 1.24
SEDEELAKRIAKLWIELHLTGNEDTIKQLMDPRVLVRIHINGVDIHLHGREHVIRHHRETMKHLGWSKVHLELKDSKFIGEYLHMDVRMNVNGQEHHVELEIIVINGRMKEIRINIE | 2.02
SEDEELAQTFLELWVHFLRTGDESMLEQYIDPHARFKVGDKEDHGMKVFKDLLHHIRIEDFRVHHVEIRIVGEWIEIRMDITLHGRVDGVRDTKRVHVHINAEKYNGRWRIKELEIRHR | 1.74

Sequence | protease stability score
SEDEELARIIMHLLEHATKTGDERILRKLLDPHVKIRVNGKDLIGWEEEHRRHEKLGADHLHLELIFKDWEFVGDYIKVHGEMRVRVNQGDKTDERNYEVRFYLLKVNGRWILESIQIH | 2.63
SEDEELEKVFLRILKEILTTGDEDTLRFLLDPNARMHVGDKELHGWSNVYEQINQLRIKDYELRDFKRVGDKVDFDGRNHGHFNGRDVEHRARLIIQKIDGRWFIHANIIE | 0.626
SEDEELFKRAIEKLIHDLLTGNFEMLEHLLDPHTRVDFNGKIMHGREFVEDIRERFPNLKLELRIDDSSVINGRANIIGTLHFNVNGKFSTHEVHYHVNKFNGKWYIEEVRIK | 1.32
SEDEELIRRFLDEFEKVIRTGNETELQRLMDPNTRFEIDGVEYHGREEVSNLLIDWAKELRLHSLHFRHIELQGEKIKIDTRENREVDGKRHVRRTEIILIKIDGRWYLHSMRYE | 1.98
SEDEELLHKVLNEFIHNVKTGDWEIITRLLDPHALLRVNGVNHIGREDLDRQLKKDFQEMRLHNIHVDDLKIQGEWIHVDTTLDIHINGVRVHFKAHIRVLKIDGRWIVHSREIR | 1.32
SEDEELLKKFFERLLHALRTGDEDHLRTLIDPHARLIQGDKHYIGREQLEHSLHIILSHIRFEHHDSRREEIQGDKAIVHSHLIVRQGDKTYRLDVTFHLEKVNGRWVIREVDLN | 1.33
SEDEELLRESVRIFREAMRTGDEEFSERMIDPNVRIHIGDKEYIGREWASEWHKRLGIKHSRFRHIEIQGDFMIADVENKVGDKHIQVEYWRHKINGRWIIESIKVH | 1.55
SEDEELMKKVFEIFLNHLETGDWRELEKLLDPHAQLNIDGRDYHGWDKITEEMRKLGMTMHSELEHVRFQGDKIDLKGYVKVRIGDKEIRRSTRYVALKVDGRWEERSIILL | 1.41
SEDEELMRRAEDFIIETWETGDWELLHHLADPRVQLDINGRTEHGRENMNEALRRWLDDLGFDHHRVRKKHVIDGRVILDFEIFQGDKEVHLHLHNVVVNGRMKSVHFKLQDN | -0.052
SEDEELRQIAVEFILHILWTGDEELLYKYFDPHVRSDINGRRTHGRENMLRAIREMMRKIKGIQLTSLHITDIEIIGDYLNIDGHFRLNYDGKETDLSLKIDIFKINGKWSIHAISYR | 2.08
SEDEELSKKAVEDILRNLETGDWETISRMADPHVRVDFNGVDIHGREVMSKMFEDELRDLGVTKVDVRLHDVDSQGDKVIVHHRVHVNGRTEEVEVHATKFNGKWVIKKMTVRVK | 1.19
SEDEELSKYLNEEINEILRTGDEDRWKELADPNTLLIIDGREFHGMELVIHLLHHLWKRLGIDQIHSTVEDEKVQGDKIIFHHRLEYNGRESHVIIISHKFNGRWRAKRVEVN | 1.43
SEDEELSQKALEMVKHSSDTGDEKTTRQLMDPNYRMVIGDYELHGWELVVDFVRHARYDDLIMRRWDSQGDKIHLDGETIVNVGDKILHTRVRLIALKVNGQWKLNSVIFH | 0.149
SEDEELSRIISHLEVDLVHTGDEDTMRKLFDPNAKSHIHVGEYNIESHGREWISILWTDLGADHRELDEIQTDVQGDKVFVNMDLTMDVDGVSHRMFIQFVSVKVDGRWTIKEINVSVI | 1.81
SEDEELTNKMRHLFLHAVRTGDETVLNRLIDPNTKLHINGVDIHGREEVRTLLREMRRHEFRTRTVEIRVIDGRVEVREDVERNGVVNGQEYETRVIIIYHAVKVDGKWVWTEIRFEER | 0.609
SEDEELVDHAWETYLRNLLTGDERTLADLIDPHVRVHINGVEFIGREELIKWLSEIRIRTIRVRRRSLINGRVEIIVDLELQVGDKHDRVTIYLIMDKFDGRWIHHTFSVE | 0.41
SEDEELVELMMKLIMELRKTGDEESIRRLADPNVRLDFNGRDNHGREHATKWIRDIVEHLRLRRFEIHNVEFQGNKAVVRSRIIMDWDGQDFHLDVIIILNKFNGRWFIHSQIVH | 1.49
SEDEELVERAIRWLESILQTGDEHVLEHFADPHVRVTVGDYDDHGRHAIHTVWRLMGVNHSEIKRKDIQVVNGVIYIHLDGVSRVNGRNFKLSIHVILEKIDGRWHVRTLHVDIK | 1.05
SEDEELVERALQEFLEHLETGDFETLRDQVDPNARVDIDGRERIGRHDILKHWEEWRWHEIKLKHVEFQGDFVHLDGKVRITIDGKEISTHVKILVYKVNGRWLMKELRIG | 2.27
SEDEELVHHIIKLWLESLVTGDERVFEELADPNVLLVVGEKTHHGRELYSEMFEILVTEIRFHEVHIRHYRHQGDKVKLDLRIDGEIDGQKTHDKAHIILHKIDGRWQLRSMIIH | 1.33
SEDEELVRKATEDFINMHRTGDEDELRKMMDPDDKLRIGDKEVIGREAVITWLMEWLKKMGVNHIRFHRVHLFDGKIHVDGELHIGDKEFEIHIFALKINGRWIRESEEIK | 1.39
SEDEELVRRAVHRFIKLLETGDWDKIQNNVDPHVRLHVDGVDFIGRELFIHWVDRVKGMRHDIRDVRIEFHGDKAHIDMVTELEIGDKRRETRVHLVMRKINGRWIIESEEYRII | 2.64
SEDEEMAKESVEHVIHALETGDFELFHKMADPSVQLDIDGREFIGWEEVRKHLEELRIERVHIRRLHIELINGQVRSTSDIEMDIRIGDYKIRTEVKVHIIIDKVNGRWRLRSMKIINH | 1.57
SEDEEMARRFFEHLLHLWRTGDEEILRNLVDPDTQMQIGDKHLHGRDAVEHMIRRIDHVEVRKVRMREIRVQGDYVVIHVELDGTQEVNGKRIEQHIEFTVFVHKVDGRWIWRSIYQI | 1.37
SEDEEMIRELAEIFIKNWETGDEEDRWKLMDPNARIEVNGKQNHGREEDERHSKELGFKHIEVRIKRSRIVGDKAEIDGELYMRYDGKTEHVKVHIHVQIVDGRIKIVSFKIR | 1.31
